Results from patent US20260226168A1.
Positions count from the first letter of the chain named.

B1: mu-131 (antibody, V domains shown)
VH: EVQLQQSGPELVKPGASVKMSCKASGYTFTNYVMHWVKQKPGQGLEWIGYFNPYNDGTNYNEKFKGKATLTSDKSSNTAYMELSSLTSEDSAVYYCARGGVRRYFDVWGAGTTVTVSS
VL: DIQMTQSPSSLSASLGERVSLTCRASQDIGSNLNWLQLGPDGTIKRLIYATFSLDSGVPKRFSGSRSGSDYSLTISSLESEDFVDYYCQQYANFPPTFGGGTKLEIK
B2: mu-128 (antibody, V domains shown)
VH: DVQLVESGGGLVQPGGSRKVSCAASGFTFSSFGMHWVRQAPEKGLEWVAYISRGSSTIYYADTVKGRFTISRDNPKNTLFLQMTSLRSEDTAMYYCARSGYGSSSYYFDYWGQGTTLTVSS
VL: ENVLTQSPAIMSASPREKVTMTCRASSSIRSSYLHWYQQKSGASPKLWIYSTSNLASGVPARFSGSGSGTSYSLTISSVEAEDAATYYCQQFSGYPLTFGGGTKLEIK
B3: mu-105 (antibody, V domains shown)
VH: EVQLQQSGPELVKPGASVKMSCKASGYTFTDYYMNWVKQSHGKSLEWIGYIYPNNGGTGYNQRFKGKATLTADKSSSTAYMELRSLTSEDSAVYYCARWGGTRLGYYAMDYWGQGTSVTVSS
VL: DIVMTQSQKFMSTSVGDRVSVTCKASQNVGTNVVWYQQKPGQSPKLLIYWASTRHTGVPDRFTGSGSGTDFTLTISNVQSEDLADYFCQQYSRYPYTFGGGTKLEIK
B4: mu-89 (antibody, V domains shown)
VH: EVQLVESGGDLVKPGGSLKLSCAASGFTFSSYGMSWVRQTPDKRLEWVATISSGGSYTYYPDSVKGRFTFSRDNAKNTLYLQMSSLKSEDTAMYYCVRQALRYHMDSWGQGTSVTVSS
VL: B3 VL with V34A, L46A, W50S, T53Y, H55Y, T56S, Y86F, S92Y, R93S, Y96W

target: human GPRC5D protein (human) (UniProt Q9NZD1); test: FACS, subclone culture supernatant on NCI-H929 cells (medium alone: MFI 8242)
Sequence (Q9NZD1 whole entry): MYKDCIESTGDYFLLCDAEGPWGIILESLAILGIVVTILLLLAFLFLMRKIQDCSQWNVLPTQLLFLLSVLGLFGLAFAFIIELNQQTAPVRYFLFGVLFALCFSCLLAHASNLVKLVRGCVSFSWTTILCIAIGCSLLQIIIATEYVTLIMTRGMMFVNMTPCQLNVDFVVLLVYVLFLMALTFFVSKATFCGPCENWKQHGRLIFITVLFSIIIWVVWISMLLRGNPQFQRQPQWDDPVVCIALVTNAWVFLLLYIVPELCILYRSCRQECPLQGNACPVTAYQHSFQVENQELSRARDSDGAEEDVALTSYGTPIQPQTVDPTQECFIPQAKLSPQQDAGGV

Row | MFI | Binder
1 | 12800 | B1
2 | 15700 | B2
3 | 13200 | B3
4 | 11900 | B4
